This passage reports enrichment results from paper PMC11969024 (2025).

B1: peptide HD2 (from tick evasin EVA4) / CCL8 (biotinylated, synthetic) (parent complex)
chain 1: EEDDYTAYAPLTCYFT
chain 2: QPDSVSIPITCCFNVINRKIPIQRLESYTRITNIQCPKEAVIFKTKRGKEVCADPKERWVRDSMKHLDQIFQNLKP

Variants of B1 are the subject of the assay.
Regarding chain 1 L11G, the enrichment is -1.12 log2 (difference from the parental peptide). For chain 1 L11S, the enrichment is 1.65 log2 (difference from the parental peptide). chain 1 L11M: the enrichment was 2.26 log2 (difference from the parental peptide). To chain 1 E2L belongs -1.7 log2 (difference from the parental peptide); to chain 1 E2V, -1.43 log2 (difference from the parental peptide).

For the variant chain 1 E2M, the enrichment was -2.24 log2 (difference from the parental peptide). For chain 1 E2D, the enrichment is 1.04 log2 (difference from the parental peptide).

In the case of chain 1 E2H, the enrichment is -2.03 log2 (difference from the parental peptide). Take chain 1 D3M: the enrichment was -3.45 log2 (difference from the parental peptide). For the variant chain 1 D3N, the enrichment is -1.8 log2 (difference from the parental peptide). To chain 1 D3L belongs -2.94 log2 (difference from the parental peptide). chain 1 D3I: the enrichment is -3.47 log2 (difference from the parental peptide). For the variant chain 1 D3P, the enrichment is -2.64 log2 (difference from the parental peptide). In the case of chain 1 D3Y, the enrichment is -2.62 log2 (difference from the parental peptide). The result for chain 1 D3G reads -2.58 log2 (difference from the parental peptide); that for chain 1 D3Q, -2.92 log2 (difference from the parental peptide). As for chain 1 D3C, the enrichment was -7.83 log2 (difference from the parental peptide). As for chain 1 D3A, the enrichment was -1.64 log2 (difference from the parental peptide). To chain 1 D4H belongs -4.48 log2 (difference from the parental peptide); to chain 1 D4C, -7.17 log2 (difference from the parental peptide). Regarding chain 1 D4V, the enrichment is -3.88 log2 (difference from the parental peptide). To chain 1 D4F belongs -4.31 log2 (difference from the parental peptide); to chain 1 D4A, -3.07 log2 (difference from the parental peptide). Turning to chain 1 D4T, the enrichment was -2.87 log2 (difference from the parental peptide). On to chain 1 D4L, for which the enrichment was -3.87 log2 (difference from the parental peptide).

For chain 1 E1G, the enrichment was -0.383 log2 (difference from the parental peptide). To chain 1 E1L belongs -1.2 log2 (difference from the parental peptide).

Take chain 1 E1D: the enrichment was 1.88 log2 (difference from the parental peptide). As to chain 1 E1P, the enrichment was -0.418 log2 (difference from the parental peptide). On to chain 1 E1C, for which the enrichment was -8.27 log2 (difference from the parental peptide). The result for chain 1 E1V reads -0.973 log2 (difference from the parental peptide). To chain 1 A7P belongs 0.181 log2 (difference from the parental peptide). To chain 1 A7M belongs 1.51 log2 (difference from the parental peptide); to chain 1 A7V, -0.376 log2 (difference from the parental peptide). For the variant chain 1 Y5A, the enrichment was -6.59 log2 (difference from the parental peptide).

As for chain 1 T16V, the enrichment was 0.537 log2 (difference from the parental peptide).

Turning to chain 1 T16W, the enrichment is -0.46 log2 (difference from the parental peptide). On to chain 1 T16Y, for which the enrichment is -0.142 log2 (difference from the parental peptide). For chain 1 T16G, the enrichment was 1.07 log2 (difference from the parental peptide).

In the case of chain 1 T12F, the enrichment was -1.18 log2 (difference from the parental peptide). Take chain 1 T12M: the enrichment is -0.433 log2 (difference from the parental peptide). The result for chain 1 T12I reads -0.26 log2 (difference from the parental peptide). Turning to chain 1 T12G, the enrichment was -3.67 log2 (difference from the parental peptide).

For chain 1 C13D, the enrichment was -4.59 log2 (difference from the parental peptide).

Regarding chain 1 C13Q, the enrichment was -1.97 log2 (difference from the parental peptide). For the variant chain 1 C13V, the enrichment is 0.0797 log2 (difference from the parental peptide). In the case of chain 1 C13R, the enrichment is -3.1 log2 (difference from the parental peptide). As for chain 1 C13M, the enrichment is -0.513 log2 (difference from the parental peptide). With chain 1 T6S, the enrichment was 2.06 log2 (difference from the parental peptide). As to chain 1 T6A, the enrichment was 1.59 log2 (difference from the parental peptide). Take chain 1 T6M: the enrichment was -0.0579 log2 (difference from the parental peptide).

With chain 1 T6P, the enrichment is -1.36 log2 (difference from the parental peptide). The result for chain 1 F15S reads 1.91 log2 (difference from the parental peptide).

In the case of chain 1 F15H, the enrichment was 2.19 log2 (difference from the parental peptide). To chain 1 F15C belongs 0.0192 log2 (difference from the parental peptide); to chain 1 P10A, -8.23 log2 (difference from the parental peptide).

Regarding chain 1 P10Y, the enrichment was -6.5 log2 (difference from the parental peptide).

Regarding chain 1 P10Q, the enrichment is -5.91 log2 (difference from the parental peptide).

On to chain 1 P10G, for which the enrichment is -9.74 log2 (difference from the parental peptide). As for chain 1 Y14S, the enrichment was -0.238 log2 (difference from the parental peptide). With chain 1 Y14D, the enrichment is -0.707 log2 (difference from the parental peptide). In the case of chain 1 Y14F, the enrichment is 0.904 log2 (difference from the parental peptide). Turning to chain 1 Y14G, the enrichment was -2.18 log2 (difference from the parental peptide). Take chain 1 Y14Q: the enrichment was 0.652 log2 (difference from the parental peptide). The result for chain 1 Y14T reads 1.09 log2 (difference from the parental peptide).

With chain 1 Y8H, the enrichment was -4.28 log2 (difference from the parental peptide). Take chain 1 Y8S: the enrichment was -4.18 log2 (difference from the parental peptide). Turning to chain 1 Y8N, the enrichment was -4.48 log2 (difference from the parental peptide). To chain 1 Y8F belongs 1.24 log2 (difference from the parental peptide); to chain 1 A9H, -2.52 log2 (difference from the parental peptide); to chain 1 A9F, -4.42 log2 (difference from the parental peptide). Take chain 1 A9I: the enrichment was -5.81 log2 (difference from the parental peptide). With chain 1 A9L, the enrichment is -3.92 log2 (difference from the parental peptide). On to chain 1 A9E, for which the enrichment was 1.36 log2 (difference from the parental peptide). On to chain 1 A9D, for which the enrichment was -7.75 log2 (difference from the parental peptide).
